# Patent US20230248855A1 (ACTINIUM PHARMACEUTICALS, published 2023)
# B1: 225Ac-HER3-ARC (Ac225 labeled DOTA-conjugated anti-HER3 monoclonal antibody) (antibody, human IgG1, kappa, V domains shown)
# VH: QVQLVESGGGLVKPGGSLRLSCAASGFTFSDYAMSWIRQAPGKGLEWVSTISDGGTYTYYPDSVKGRFTISRDNAKNSLYLQMNSLRAEDTAVYYCAREWGDYDGFDYWGQGTLVTVSS
# VL: DIQMTQSPSSLSASVGDRVTITCRASQEISGYLSWYQQKPGKAPKRLIYAASTLDSGVPSRFSGSGSGTEFTLTISSLQPEDFATYYCLQYDSYPYTFGQGTKLEIKR
# modifications: DOTA chelator conjugated using p-SCN-Bn-DOTA and chelating Actinium-225; sites and chain not stated
# B2: anti-HER3 IgG monoclonal antibody consisting of heavy chain SEQ ID NO:77 and light chain SEQ ID NO:78 (unmodified) (antibody, V domains shown)
# VH: B1 VH
# VL: B1 VL
# notes: IgG, detected with an anti-human IgG secondary antibody; also called unmodified anti-HER3 antibody; unmodified anti-HER3 mAb
# Molecular target: T1, human recombinant HER3 (human, UniProt P21860 20-643)
# T1 construct: Plate-coated recombinant protein in the ELISA
# Test: ELISA, plate coated with human recombinant HER3, anti-human IgG F(ab')2-HRP detection
# Experimental: A secondary antibody (Goat Anti-human IgG F(ab′)20-HRP) was added and incubated for 30 min on ice followed by color development using […] for 10 min.
# T1 sequence (P21860 20-643 limits assumed): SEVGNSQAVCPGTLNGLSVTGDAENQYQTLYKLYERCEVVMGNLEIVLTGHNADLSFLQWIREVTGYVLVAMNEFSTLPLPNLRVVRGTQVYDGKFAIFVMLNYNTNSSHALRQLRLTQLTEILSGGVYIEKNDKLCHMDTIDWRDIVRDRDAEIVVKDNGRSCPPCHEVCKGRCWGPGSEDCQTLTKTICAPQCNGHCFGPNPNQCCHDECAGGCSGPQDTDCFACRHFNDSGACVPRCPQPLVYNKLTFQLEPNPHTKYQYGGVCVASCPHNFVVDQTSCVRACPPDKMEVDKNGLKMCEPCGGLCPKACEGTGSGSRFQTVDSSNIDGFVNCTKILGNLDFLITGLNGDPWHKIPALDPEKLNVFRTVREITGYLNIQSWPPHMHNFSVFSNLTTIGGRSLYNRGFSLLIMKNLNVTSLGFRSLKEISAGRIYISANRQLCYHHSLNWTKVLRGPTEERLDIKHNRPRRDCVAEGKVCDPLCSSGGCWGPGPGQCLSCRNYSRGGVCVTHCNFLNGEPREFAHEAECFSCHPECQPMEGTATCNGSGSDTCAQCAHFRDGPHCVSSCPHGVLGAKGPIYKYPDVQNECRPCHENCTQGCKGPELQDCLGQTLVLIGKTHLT
row,Binder,EC50 [ng/mL]
1,B1,1.7
2,B2,2.2
